Test results taken from patent US20050049403A1 (CAMBRIDGE ANTIBODY TECHNOLOGY, published 2005).

Target: T1, TGFβ2 in rat tissue sections (rat, UniProt Q07257 331-442, limits assumed)
T1 construct: also called rat TGFβ2
T1 sequence (looked up): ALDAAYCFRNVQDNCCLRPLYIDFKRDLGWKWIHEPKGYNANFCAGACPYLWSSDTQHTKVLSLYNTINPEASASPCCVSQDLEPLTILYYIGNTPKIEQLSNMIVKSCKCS
Experiment: immunohistochemistry, 6B1 IgG4 at 500 ng/ml on pronase E treated rat kidney sections
Method: Paraffin embedded rat tissues were de-waxed and rehydrated through an alcohol series. The sections were then treated with 0.1% pronase E for exactly 8 min and then washed in water. TGFβ2 was detected in the sections using 6B1 IgG4 at 500 ng/ml following the protocol provided with a Vectastain ABC (avidin-biotin-complex) kit from Vector Laboratories. On kidney sections, bound antibody was located with alkaline phosphatase and peroxidase was used on rat brain tissues.

B1: 6B1 IgG4 (antibody, V domains shown)
VH: EVQLVESGGGVVQPGRSLRLSCAASGFTFSSYGMHWVRQAPGKGLEWVAVIWYDGSNKYYADSVKGRFTISRDNSKNTLYLQMDSLRAEDTAVYYCGRTLESSLWGQGTLVTVSS
VL: SSELTQDPAVSVALGQTVRITCQGDSLRSYYASWYQQKPGQAPVLVIYGKNNRPSGIPDRFSGSSSGNTASLTITGAQAEDEADYYCNSRDSSSTHRGVFGGGTKLTVLG
notes: Whole antibody: human gamma 4 and human lambda constant regions; FITC-labelled in the human tissue study; also called antibody 6B1
B1: binds.
